According to publication PMC5240567, “New Insights into Cooperative Binding of Homeodomain Transcription Factors PREP1 and PBX1 to DNA”:

Assays:
PREP1HD KKKK->AAAA = biological target: T1, PREP1HD KKKK->AAAA (UniProt P55347 240-344, K331A;K333A;K334A;K335A); test: fluorescence polarization; FP and EMSA: 20 mM Na/K phosphate pH 7.2, 150 mM NaCl, 5% glycerol, 1 mM TCEP, room temperature (FP 9 nM DNA, 30 min; EMSA gel run at 4 C in 0.5x TBE); NMR: 20; settings: protein: recombinant; tags: GST cleaved (pGEX-6P); label: 5' 6-FAM (FP); unlabeled in EMSA and NMR
T1 sequence: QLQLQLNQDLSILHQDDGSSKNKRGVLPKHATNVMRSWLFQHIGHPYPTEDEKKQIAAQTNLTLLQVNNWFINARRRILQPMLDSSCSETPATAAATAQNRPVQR

HOXB1HD;PBX1HD [1] = biological target: T2, HOXB1HD;PBX1HD (;, UniProt P14653;P40424 171-266;227-317, |); test: fluorescence polarization; HOXB1HD titrated into preformed PBX1HD:PMH; FP and EMSA: 20 mM Na/K phosphate pH 7.2, 150 mM NaCl, 5% glycerol, 1 mM TCEP, room temperature (FP 9 nM DNA, 30 min; EMSA gel run at 4 C in 0.5x TBE); NMR: 20; settings: protein: recombinant;recombinant; tags: GST cleaved (pGEX-6P);GST cleaved (pGEX-6P); copies: 1;1; label: 5' 6-FAM (FP); unlabeled in EMSA and NMR
T2 sequence (P14653 171-266, chain 1 of 2, one chain of several): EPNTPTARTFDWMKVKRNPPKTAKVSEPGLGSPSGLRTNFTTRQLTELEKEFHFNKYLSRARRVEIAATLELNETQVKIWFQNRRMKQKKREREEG

PREP1hd;PBX1HD [2] = biological target: T3, PREP1hd;PBX1HD (;, UniProt P55347;P40424 257-325;227-317, |); test: fluorescence polarization; PREP1hd titrated into preformed PBX1HD (0.3 uM):PMH; FP and EMSA: 20 mM Na/K phosphate pH 7.2, 150 mM NaCl, 5% glycerol, 1 mM TCEP, room temperature (FP 9 nM DNA, 30 min; EMSA gel run at 4 C in 0.5x TBE); NMR: 20; settings: protein: recombinant;recombinant; tags: GST cleaved (pGEX-6P);GST cleaved (pGEX-6P); copies: 1;1; label: 5' 6-FAM (FP); unlabeled in EMSA and NMR
T3 sequence 1: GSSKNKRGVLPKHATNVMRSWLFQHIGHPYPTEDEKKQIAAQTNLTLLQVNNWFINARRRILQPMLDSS
T3 sequence 2: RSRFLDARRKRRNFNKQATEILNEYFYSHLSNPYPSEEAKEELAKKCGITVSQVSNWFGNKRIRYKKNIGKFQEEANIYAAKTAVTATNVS

PREP1HD;PBX1HD [3] = biological target: T4, PREP1HD;PBX1HD (;, UniProt P55347;P40424 240-344;227-317, |); test: fluorescence polarization; PREP1HD titrated into preformed PBX1HD (0.3 uM):PMH; FP and EMSA: 20 mM Na/K phosphate pH 7.2, 150 mM NaCl, 5% glycerol, 1 mM TCEP, room temperature (FP 9 nM DNA, 30 min; EMSA gel run at 4 C in 0.5x TBE); NMR: 20; settings: protein: recombinant;recombinant; tags: GST cleaved (pGEX-6P);GST cleaved (pGEX-6P); copies: 1;1; label: 5' 6-FAM (FP); unlabeled in EMSA and NMR
T4 sequence 1: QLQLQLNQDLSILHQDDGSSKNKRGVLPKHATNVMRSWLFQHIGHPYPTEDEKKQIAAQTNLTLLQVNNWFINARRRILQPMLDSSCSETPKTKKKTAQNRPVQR
T4 sequence 2: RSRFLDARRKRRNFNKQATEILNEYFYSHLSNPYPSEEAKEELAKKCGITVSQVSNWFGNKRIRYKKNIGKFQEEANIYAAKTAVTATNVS

HOXB1HD;PBX1HD [4] = biological target: T2, HOXB1HD;PBX1HD; test: fluorescence polarization; HOXB1HD titrated into preformed PBX1HD:control; FP and EMSA: 20 mM Na/K phosphate pH 7.2, 150 mM NaCl, 5% glycerol, 1 mM TCEP, room temperature (FP 9 nM DNA, 30 min; EMSA gel run at 4 C in 0.5x TBE); NMR: 20; settings: protein: recombinant;recombinant; tags: GST cleaved (pGEX-6P);GST cleaved (pGEX-6P); copies: 1;1; label: 5' 6-FAM (FP); unlabeled in EMSA
HOXB1HD;PBX1HD [5] = biological target: T2, HOXB1HD;PBX1HD; test: fluorescence polarization; HOXB1HD titrated into preformed PBX1HD:PH; FP and EMSA: 20 mM Na/K phosphate pH 7.2, 150 mM NaCl, 5% glycerol, 1 mM TCEP, room temperature (FP 9 nM DNA, 30 min; EMSA gel run at 4 C in 0.5x TBE); NMR: 20; settings: protein: recombinant;recombinant; tags: GST cleaved (pGEX-6P);GST cleaved (pGEX-6P); copies: 1;1; label: 5' 6-FAM (FP); unlabeled in EMSA

B1: PMH (dsDNA)
DNA 1: AGTGATTGACAGATTC
DNA 2: GAATCTGTCAATCACT
Q: What does the source list for B1?
A: Kd (PREP1HD KKKK->AAAA): 21.8 ± 0.8 µM; Kd (HOXB1HD;PBX1HD [1]): 1.3 ± 0.3 µM; Kd (PREP1hd;PBX1HD [2]): 5.1 ± 1.8 µM; Kd (PREP1HD;PBX1HD [3]): 1.9 ± 0.5 µM

B2: Control (dsDNA)
DNA 1: AGGATAACCTGGGATT
DNA 2: AATCCCAGGTTATCCT
Q: With B2 as the binder, how does the Kd (HOXB1HD;PBX1HD [4]) read?
A: 34.7 ± 1.7 µM

B3: PH (dsDNA)
DNA 1: AGAGTGATTGATAAGG
DNA 2: CCTTATCAATCACTCT
Q: Which Kd (HOXB1HD;PBX1HD [5]) does the source give for B3 here?
A: 0.39 ± 0.1 µM
